Patent US20140370035A1 (BIOVERATIV THERAPEUTICS, published 2014)

How the values were obtained:
[1] = biological target: single-chain canine FcRn (canine); experiment: SPR (Biacore T100), steady state, pH 6.0; single-chain FcRn amine-coupled to CM5 chip, analyte at 0.0625-2000 nM
[2] = biological target: single-chain human FcRn (human) (UniProt P55899); experiment: as above
[3] = biological target: single-chain murine FcRn (mouse) (UniProt Q61559); experiment: as above
[4] = test system: T1, rBDD FVIII (recombinant B-domain deleted FVIII)
T1 sequence: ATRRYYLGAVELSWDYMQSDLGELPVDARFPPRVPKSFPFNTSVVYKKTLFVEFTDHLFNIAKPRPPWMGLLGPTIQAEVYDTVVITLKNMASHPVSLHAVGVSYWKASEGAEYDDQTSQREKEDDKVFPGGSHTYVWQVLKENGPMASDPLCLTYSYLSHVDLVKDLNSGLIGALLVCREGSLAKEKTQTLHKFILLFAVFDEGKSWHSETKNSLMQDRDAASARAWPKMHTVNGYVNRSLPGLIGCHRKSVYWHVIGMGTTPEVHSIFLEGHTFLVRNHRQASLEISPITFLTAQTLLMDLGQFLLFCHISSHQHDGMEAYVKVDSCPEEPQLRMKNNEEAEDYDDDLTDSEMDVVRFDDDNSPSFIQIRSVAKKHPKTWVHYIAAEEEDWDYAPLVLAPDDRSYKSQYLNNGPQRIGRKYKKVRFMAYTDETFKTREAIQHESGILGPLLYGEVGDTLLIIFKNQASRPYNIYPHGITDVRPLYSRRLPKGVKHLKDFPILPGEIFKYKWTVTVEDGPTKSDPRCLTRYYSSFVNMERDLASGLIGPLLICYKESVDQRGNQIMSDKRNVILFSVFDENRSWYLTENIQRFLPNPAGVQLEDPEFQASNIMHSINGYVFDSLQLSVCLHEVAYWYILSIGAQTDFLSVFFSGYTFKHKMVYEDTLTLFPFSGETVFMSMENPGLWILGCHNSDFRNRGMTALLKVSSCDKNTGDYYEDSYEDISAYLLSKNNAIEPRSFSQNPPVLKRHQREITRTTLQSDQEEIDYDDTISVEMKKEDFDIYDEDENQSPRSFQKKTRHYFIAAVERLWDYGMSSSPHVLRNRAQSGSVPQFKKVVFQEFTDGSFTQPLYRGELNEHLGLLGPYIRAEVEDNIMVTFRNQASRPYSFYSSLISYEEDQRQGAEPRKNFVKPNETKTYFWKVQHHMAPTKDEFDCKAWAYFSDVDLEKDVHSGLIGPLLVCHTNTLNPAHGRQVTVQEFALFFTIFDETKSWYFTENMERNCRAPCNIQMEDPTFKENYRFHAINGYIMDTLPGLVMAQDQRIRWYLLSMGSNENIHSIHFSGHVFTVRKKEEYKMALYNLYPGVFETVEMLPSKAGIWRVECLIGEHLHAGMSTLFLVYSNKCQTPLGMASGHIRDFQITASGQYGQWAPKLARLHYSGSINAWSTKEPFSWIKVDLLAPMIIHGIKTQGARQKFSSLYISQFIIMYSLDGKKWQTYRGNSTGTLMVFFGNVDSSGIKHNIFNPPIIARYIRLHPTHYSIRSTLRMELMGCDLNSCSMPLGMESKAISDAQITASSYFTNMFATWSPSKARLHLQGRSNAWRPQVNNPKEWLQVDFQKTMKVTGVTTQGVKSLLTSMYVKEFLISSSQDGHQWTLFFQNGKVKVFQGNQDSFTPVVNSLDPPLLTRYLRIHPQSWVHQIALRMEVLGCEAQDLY

[5] = biological target: T2, human von Willebrand factor (human, UniProt P04275 764-2813); experiment: SPR (BIAcore); FVIII protein as analyte, hvWf as ligand; N=5
T2 construct: also called hvWf; vWF
Procedure: (§1) Kinetic rate parameters of Kₐ (on-rate) and Kd (off-rate), and the affinity KD (Kd/Kₐ), were determined for each FVIII interaction under identical conditions.

[6] = biological target: T2, human von Willebrand factor; experiment: SPR (BIAcore); FVIII protein as analyte, hvWf as ligand; N=5; KD = off-rate/on-rate
Procedure: as §1

single-chain human FcRn (human), sequence (P55899 24-297 limits assumed, form in doubt, chain 1 of 2): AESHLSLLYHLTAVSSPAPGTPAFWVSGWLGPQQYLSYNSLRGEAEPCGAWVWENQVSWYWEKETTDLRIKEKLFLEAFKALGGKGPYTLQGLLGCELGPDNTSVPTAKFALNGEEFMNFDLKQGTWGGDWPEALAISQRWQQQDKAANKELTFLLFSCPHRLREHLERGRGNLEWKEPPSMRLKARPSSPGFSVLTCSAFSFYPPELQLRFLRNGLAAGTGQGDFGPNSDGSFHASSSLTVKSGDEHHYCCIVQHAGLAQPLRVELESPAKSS
single-chain human FcRn (human), sequence (chain, as listed by the source limits assumed, form in doubt, chain 2 of 2): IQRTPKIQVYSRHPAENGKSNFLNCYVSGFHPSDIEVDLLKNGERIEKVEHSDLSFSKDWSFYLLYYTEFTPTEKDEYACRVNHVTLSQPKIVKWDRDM
single-chain canine FcRn (canine), sequence (chain, as listed by the source, form in doubt): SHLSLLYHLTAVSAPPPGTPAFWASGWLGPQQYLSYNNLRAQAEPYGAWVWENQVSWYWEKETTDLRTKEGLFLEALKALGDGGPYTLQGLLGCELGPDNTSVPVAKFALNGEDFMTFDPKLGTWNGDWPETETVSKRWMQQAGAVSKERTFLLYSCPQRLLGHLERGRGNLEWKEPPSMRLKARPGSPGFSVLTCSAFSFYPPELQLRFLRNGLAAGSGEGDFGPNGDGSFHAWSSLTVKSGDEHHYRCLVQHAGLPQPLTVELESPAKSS
single-chain murine FcRn (mouse), sequence (Q61559 22-297 limits assumed, form in doubt, chain 1 of 2): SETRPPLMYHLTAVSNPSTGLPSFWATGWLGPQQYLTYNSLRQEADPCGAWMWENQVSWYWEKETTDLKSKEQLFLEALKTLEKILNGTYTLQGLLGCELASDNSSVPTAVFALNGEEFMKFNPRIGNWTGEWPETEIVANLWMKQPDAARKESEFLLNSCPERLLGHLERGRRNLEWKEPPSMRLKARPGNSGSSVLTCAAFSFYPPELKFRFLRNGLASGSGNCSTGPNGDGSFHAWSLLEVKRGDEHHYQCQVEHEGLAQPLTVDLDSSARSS
single-chain murine FcRn (mouse), sequence (chain, as listed by the source limits assumed, form in doubt, chain 2 of 2): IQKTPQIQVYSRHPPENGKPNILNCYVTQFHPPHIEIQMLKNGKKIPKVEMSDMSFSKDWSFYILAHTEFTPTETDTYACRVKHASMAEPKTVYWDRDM

Human IgG1 (antibody)
EC50 [1]: 196 nM
EC50 [2]: 558 nM
EC50 [3]: < 22.4 nM

activated Factor IX
Km (nM) (called Kd in the text): FXa generation rate against FIXa concentration, thrombin-activated FVIII protein on 25% PS-75% PC vesicles [4]: 2.5 nM
Vmax (nM/min): FXa generation rate against FIXa concentration [4]: 4 nM/min

activated protein C
normalized FXa generation rate following cleavage by APC (thrombin 30' = 100); shown without a number [4]: 'BDD FVIII' is one of the two lighter bars of each group (alike in the scan); both lighter bars: about 8-16 without thrombin, 100 after thrombin 30', not lowered after a further 15' with APC (about 108-111), fallen to about 18-27 after 90' with APC

B1: rBDD FVIII (recombinant B-domain deleted FVIII) (other)
chain: ATRRYYLGAVELSWDYMQSDLGELPVDARFPPRVPKSFPFNTSVVYKKTLFVEFTDHLFNIAKPRPPWMGLLGPTIQAEVYDTVVITLKNMASHPVSLHAVGVSYWKASEGAEYDDQTSQREKEDDKVFPGGSHTYVWQVLKENGPMASDPLCLTYSYLSHVDLVKDLNSGLIGALLVCREGSLAKEKTQTLHKFILLFAVFDEGKSWHSETKNSLMQDRDAASARAWPKMHTVNGYVNRSLPGLIGCHRKSVYWHVIGMGTTPEVHSIFLEGHTFLVRNHRQASLEISPITFLTAQTLLMDLGQFLLFCHISSHQHDGMEAYVKVDSCPEEPQLRMKNNEEAEDYDDDLTDSEMDVVRFDDDNSPSFIQIRSVAKKHPKTWVHYIAAEEEDWDYAPLVLAPDDRSYKSQYLNNGPQRIGRKYKKVRFMAYTDETFKTREAIQHESGILGPLLYGEVGDTLLIIFKNQASRPYNIYPHGITDVRPLYSRRLPKGVKHLKDFPILPGEIFKYKWTVTVEDGPTKSDPRCLTRYYSSFVNMERDLASGLIGPLLICYKESVDQRGNQIMSDKRNVILFSVFDENRSWYLTENIQRFLPNPAGVQLEDPEFQASNIMHSINGYVFDSLQLSVCLHEVAYWYILSIGAQTDFLSVFFSGYTFKHKMVYEDTLTLFPFSGETVFMSMENPGLWILGCHNSDFRNRGMTALLKVSSCDKNTGDYYEDSYEDISAYLLSKNNAIEPRSFSQNPPVLKRHQREITRTTLQSDQEEIDYDDTISVEMKKEDFDIYDEDENQSPRSFQKKTRHYFIAAVERLWDYGMSSSPHVLRNRAQSGSVPQFKKVVFQEFTDGSFTQPLYRGELNEHLGLLGPYIRAEVEDNIMVTFRNQASRPYSFYSSLISYEEDQRQGAEPRKNFVKPNETKTYFWKVQHHMAPTKDEFDCKAWAYFSDVDLEKDVHSGLIGPLLVCHTNTLNPAHGRQVTVQEFALFFTIFDETKSWYFTENMERNCRAPCNIQMEDPTFKENYRFHAINGYIMDTLPGLVMAQDQRIRWYLLSMGSNENIHSIHFSGHVFTVRKKEEYKMALYNLYPGVFETVEMLPSKAGIWRVECLIGEHLHAGMSTLFLVYSNKCQTPLGMASGHIRDFQITASGQYGQWAPKLARLHYSGSINAWSTKEPFSWIKVDLLAPMIIHGIKTQGARQKFSSLYISQFIIMYSLDGKKWQTYRGNSTGTLMVFFGNVDSSGIKHNIFNPPIIARYIRLHPTHYSIRSTLRMELMGCDLNSCSMPLGMESKAISDAQITASSYFTNMFATWSPSKARLHLQGRSNAWRPQVNNPKEWLQVDFQKTMKVTGVTTQGVKSLLTSMYVKEFLISSSQDGHQWTLFFQNGKVKVFQGNQDSFTPVVNSLDPPLLTRYLRIHPQSWVHQIALRMEVLGCEAQDLY
notes: The commercial product is largely processed into heavy and light chains; also called XYNTHA
koff [5]: 0.00114 s⁻¹
kon [5]: 1.37e+06 M⁻¹ s⁻¹
Kd [6]: 0.846 nM
